Experimental data from patent US6833355.

Legend:
[1] = biological target: nuclear proteins (mixture of Jurkat nuclear extract proteins purified on protein H-Sepharose); assay: SPR (BIACORE X), protein H over immobilised nuclear proteins; mean ± SD of three experiments
[2] = biological target: nucleophosmin/B23 (NPM), papain-released material of Jurkat T cell membrane preparations, Mono-Q pool 85-87 (human) (UniProt P06748); assay: SPR (BIACORE X), protein H over biotinylated NPM on an avidin chip; mean ± SD of three experiments
[3] = biological target: nucleophosmin/B23 (NPM), papain-released material of Jurkat T cell membrane preparations, Mono-Q pool 85-87 (human) (UniProt P06748); assay: Affinity chromatography of 125I-labelled pool 85-87 (run-through of protein A-Sepharose) on protein H-Sepharose

Chain of nucleophosmin/B23 (NPM), papain-released material of Jurkat T cell membrane preparations, Mono-Q pool 85-87 (human) (P06748 1-147 limits assumed): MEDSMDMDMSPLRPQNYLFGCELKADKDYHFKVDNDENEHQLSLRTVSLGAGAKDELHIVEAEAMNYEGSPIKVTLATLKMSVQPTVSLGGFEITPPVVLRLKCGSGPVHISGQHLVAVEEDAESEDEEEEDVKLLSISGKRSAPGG
Chain of protein H of Streptococcus pyogenes, COOH-terminally truncated fragment expressed by and purified from E. coli (305 amino acids) (P50470 42-346): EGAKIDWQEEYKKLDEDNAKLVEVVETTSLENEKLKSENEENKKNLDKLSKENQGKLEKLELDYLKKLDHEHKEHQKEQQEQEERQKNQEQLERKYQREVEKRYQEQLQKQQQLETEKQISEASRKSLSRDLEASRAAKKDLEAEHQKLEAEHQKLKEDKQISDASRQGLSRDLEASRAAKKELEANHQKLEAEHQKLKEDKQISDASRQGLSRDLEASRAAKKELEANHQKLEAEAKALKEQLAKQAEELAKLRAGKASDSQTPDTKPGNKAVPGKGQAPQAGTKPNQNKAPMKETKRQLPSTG

protein H of Streptococcus pyogenes, COOH-terminally truncated fragment expressed by and purified from E. coli (305 amino acids) (from UniProt P50470 42-346)
Ka [1]: 2.62e+07 M⁻¹
Kd [1]: 44 nM
koff [1]: 6.7e-05 s⁻¹
kon [1]: 1700 M⁻¹ s⁻¹
Ka [2]: 3.6e+06 M⁻¹
Kd [2]: 286 nM
koff [2]: 0.0019 s⁻¹
kon [2]: 6700 M⁻¹ s⁻¹
percent of radioactivity bound [3]: > 70%
